{"source": "patent US20240376189A1", "about": "(University of Pennsylvania, published 2024)", "binders": {"B1": {"name": "E54H (humanized anti-C5a IgG4 antibody) (antibody, V domains shown)", "VH": "QVQLVQSGAEVKKPGSSVKVSCKASGYTHTDHIIHWMRQAPGQGLEWMGYIYPRHGWTNYNENFKGRVTITADKSTSTAYMELSSLRSEDTAVYYCARERNLEYFDYWGQGTTVTVSS", "VL": "DIVLTQSPASLAVSPGQRATITCKASQSVDYEGFNYMNWYQQKPGQPPKLLIYAASNLDSGVPARFSGSGSGTDFTLTINPVEAEDTANYYCQQSNEDPHTFGGGTKVEIKR", "notes": "Carries F29H and E54H in VH and Y96H in VL (Kabat) relative to 16D10"}, "B2": {"name": "16D10 (humanized anti-C5a IgG4 antibody) (antibody, V domains shown)", "VH": "B1 VH with H29F, H55E", "VL": "B1 VL with H100Y", "notes": "also called WT (16D10); WT"}, "B3": {"name": "N92H (humanized anti-C5a IgG4 antibody) (antibody, V domains shown)", "VH": "B1 VH with H55E", "VL": "B1 VL with N96H", "notes": "Carries F29H in VH and N92H and Y96H in VL (Kabat); also called N92H antibody"}, "B4": {"name": "N97H (humanized anti-C5a IgG4 antibody) (antibody, V domains shown)", "VH": "B1 VH with H55E, N101H", "VL": "B1 VL", "notes": "Carries F29H and N97H in VH and Y96H in VL (Kabat)"}, "B5": {"name": "NM2 (scFv, V domains shown)", "VH": "B1 VH with H29F, H55E, W57N", "VL": "DIVLTQSPASLAVSPGQRATITCKASQSVDYEGDNYMNWYQQKPGQPPKLLIYAASNLDSGVPARFSGSGSGTDFTLTINPVEAEDTANYYCQQSNEDPHTFGGGTKVEIK", "notes": "scFv expressed in E. coli BL21 (periplasmic extract)"}, "B6": {"name": "18F5 (scFv, V domains shown)", "VH": "B1 VH with H29F, H55E, W57F", "VL": "B5 VL with Y31F, D34F, N96V", "notes": "Combination mutant scFv"}}, "note": "Substitutions are numbered along the chain they refer to. Names may count otherwise."}
{"molecular_target": "T1, human C5 (human, UniProt P01031 19-673; P01031 678-1676, limits assumed)", "T1 construct": "In the sheep RBC lysis assay, C5 is the C5 of normal human serum; also called huC5", "assay": "ELISA, affinity for human C5 against affinity for human C5a", "units": {"Fold affinity (C5/C5a)": "fold"}}
{"binder": "B1", "Fold affinity (C5/C5a)": 5.6}
{"binder": "B2", "Fold affinity (C5/C5a)": 9.3}
{"binder": "B3", "Fold affinity (C5/C5a)": 3.9}
{"binder": "B4", "Fold affinity (C5/C5a)": 6}
{"molecular_target": "T2, cynomolgus antigen (cynomolgus)", "T2 construct": "also called cyno antigen; cynomolgus monkey C5a", "assay": "SPR, scFv captured via anti-c-myc/anti-His, 60 nM cynomolgus antigen as analyte, 1:1 fit", "method": "The activator was prepared by mixing 400 mM EDC (1-ethyl-3-(3-dimethylaminopropyl) carbodiimide) and 100 mM NHS (N-hydroxysuccinimide) (GE) immediately prior to injection. The CMS sensor chip was activated for 600 s with the mixture at a flow rate of 10 μL/min. Mixture of anti-c-myc and anti his antibodies in 10 mM NaAc (pH 4.5) was then injected to Fc1 and Fc2 of channel 1 to channel 8 for 600 seconds at a flow rate of 10 μL/min. The chip was deactivated by 1 M ethanolamine-HCl (GE) at a flow rate of 10 μL/min for 420 seconds.\nThe anti-C5a scFv was diluted to 0.5 μg/ml, the other samples were diluted to 2 μg/ml in running buffer 1×HBS-EP+ (0.01 M HEPES, 0.15 M NaCl, 0.003 M EDTA, 0.05% surfactant P20). […] Diluted TES buffer was injected into channel Fc1 at a flow rate of 10 μL/min for 40 s, diluted scFv was injected into channel Fc2 at a flow rate of 10 μL/min for 40 s. […] 10 mM glycine pH 1.5 as regeneration buffer was injected following every dissociation phase. The chip was regenerated with 10 mM glycine pH 1.5.\nThe sensorgrams for reference channel Fc1 and buffer channel were subtracted from the test sensorgrams. Data were fitted by 1:1 kinetic binding model. Molecular weight of 8.4 kDa was used to calculate the molar concentration of the cyno antigen.", "units": {"koff": "s⁻¹"}}
{"binder": "B5", "koff": 0.0783}
{"binder": "B6", "koff": 0.000319}
{"molecular_target": "T2, cynomolgus antigen", "assay": "affinity-ranking ELISA: cynomolgus antigen coated on the plate, normalized scFv periplasmic extract in 3-fold dilutions from 100 nM, anti-c-myc-HRP, OD450", "method": "The affinity ranking ELISA was carried out as following: scFv concentrations in PEs were measured by Quantification ELISA using purified scFv sample as a standard. Briefly, anti-His-antibody (Genscript-A00186) were coated on the plates in coating buffer PBS at pH7.4 overnight at 4° C. The next day, plates were blocked with casein in PBS at pH7.4 for 1 hour at 25° C. ScFv containing PEs were diluted 3 fold serial dilutions and then added to the plates. A purified scFv standard sample with known concentration was used as a standard. After incubation at 25° C. for 1 hour and washing 3 times with PBS-T, anti-c-myc-HRP (Bethyl-A190-104P) was added to the wells followed by incubation for 1 hour at 25° C. HRP activity was detected with TMB substrate and the reaction was quenched with 2M HCl. Plates were read at 450 nm.\nThe next day, plates were blocked with casein in PBS for 1 hour at 25° C. Normalized scFv containing PEs were diluted using 3 fold serial dilutions starting at 100 nM, added to the plates and incubated at 25° C. for 1 hour. After washing, anti-c-myc-HRP was added to the wells followed by incubation for 1 hour at 25° C. HRP activity was detected with TMB substrate and the reaction was quenched with 2M HCl. Plates were read at 450 nm. Data were fitted into one-site binding equation using GraphPad Prism 5 software.", "units": {"EC50 (read off the curve)": "nM"}}
{"binder": "B6", "EC50 (read off the curve)": "~8"}
{"molecular_target": "T1, human C5", "assay": "BLI (Gator), antibody on anti-human IgG Fc probes, 40 nM human C5 bound 600 s at pH 7.4, 600 s dissociation at pH 7.4", "method": "(§1) pH dependency of the humanized anti-C5a constructs were tested using C5 binding assays. A Biolayer interferometry instrument, Gator™ (Probe life Inc., USA) was used to determine pH dependent dissociation of histidine mutants and the benchmark antibodies. Briefly, anti-human IgG Fc (FHC) Probes were equilibrated in the kinetic (K) buffer of Phosphate-buffered saline containing 0.02% bovine serum albumin and 0.002% Tween20 pH 7.4. Antibodies were captured onto the sensors by dipping them into 200 μL of transfection supernatant for 600 s at pH 7.4. The biosensors were then incubated with human C5 prepared in the K buffer pH 7.4 (40 nM) for 600s followed by 600-second dissociation period in K Buffer, pH 7.4 or pH 5.8. The data were processed and analyzed by the Gator evaluation software.", "units": {"Dissociation pH 7.4 (%)": "%"}}
{"binder": "B1", "Dissociation pH 7.4 (%)": 5.39}
{"binder": "B2", "Dissociation pH 7.4 (%)": 1.16}
{"binder": "B3", "Dissociation pH 7.4 (%)": 8.29}
{"binder": "B4", "Dissociation pH 7.4 (%)": 4.49}
{"molecular_target": "T3, human C5a (human, UniProt P01031 678-751, biotinylated in the U937/C5aR ligand blocking assay (site not stated))", "T3 sequence": "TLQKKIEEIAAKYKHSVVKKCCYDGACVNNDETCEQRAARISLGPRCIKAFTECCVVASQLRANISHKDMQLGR", "assay": "cell-based or functional assay", "units": {"Inhibition of calcium influx IC50 (nM), FLIPR, Experiment #1": "nM", "Inhibition of calcium influx IC50 (nM), FLIPR, Experiment #2": "nM"}}
{"binder": "B1", "Inhibition of calcium influx IC50 (nM), FLIPR, Experiment #1": 0.136, "Inhibition of calcium influx IC50 (nM), FLIPR, Experiment #2": 0.154}
{"binder": "B2", "Inhibition of calcium influx IC50 (nM), FLIPR, Experiment #1": 0.106, "Inhibition of calcium influx IC50 (nM), FLIPR, Experiment #2": 0.135}
{"binder": "B3", "Inhibition of calcium influx IC50 (nM), FLIPR, Experiment #1": 0.078, "Inhibition of calcium influx IC50 (nM), FLIPR, Experiment #2": 0.145}
{"binder": "B4", "Inhibition of calcium influx IC50 (nM), FLIPR, Experiment #1": 0.072, "Inhibition of calcium influx IC50 (nM), FLIPR, Experiment #2": 0.138}
{"molecular_target": "T3, human C5a", "assay": "SPR, scFv captured via anti-c-myc/anti-His, 5 nM human antigen as analyte, 1:1 fit", "units": {"koff": "s⁻¹"}}
{"binder": "B5", "koff": 0.000736}
{"binder": "B6", "koff": "3.03e-05"}
{"molecular_target": "T3, human C5a", "assay": "ligand blocking, flow cytometry: antibody titrated against 20 nM biotinylated human C5a binding to U937/C5aR cells, Experiment #2", "method": "(§2) U937/C5aR cells were washed twice by PBS and suspended in assay buffer (PBS+0.1% BSA) at the density of 3×10⁶ cells/ml. […] 1000 rpm centrifuge for 3-5 min at 4° C., remove supernatant and cells were washed by pre-cold PBS twice. Add 100 μl FITC conjugated streptavidin (eBioscience) to cells and incubate on ice for another 30 min. Centrifuge at 4° C., remove supernatant and cells were washed by pre-cold PBS twice. Add 150 μl 0.5% PFA to suspend cells and detect the signal by FACS (Beckman, Cytoflex). IC₅₀ value was calculated by GraphPad Prism software.\n(§3) Mean fluorescence intensities were measured at each antibody concentration. U937 cells without addition of antibodies was used as the low control.", "units": {"IC50": "nM"}}
{"binder": "B1", "IC50": 6.53}
{"binder": "B2", "IC50": 5.9}
{"binder": "B3", "IC50": 6.23}
{"binder": "B4", "IC50": 5.96}
{"molecular_target": "T3, human C5a", "assay": "ELISA, antibody titrated on C5a-coated plate", "units": {"affinity determined by ELISA, huC5a": "nM"}}
{"binder": "B1", "affinity determined by ELISA, huC5a": 0.336}
{"binder": "B2", "affinity determined by ELISA, huC5a": 0.269}
{"binder": "B3", "affinity determined by ELISA, huC5a": 0.468}
{"binder": "B4", "affinity determined by ELISA, huC5a": 0.408}
{"molecular_target": "T2, cynomolgus antigen", "assay": "SPR, scFv captured, cynomolgus antigen as analyte", "units": {"Kd": "nM", "koff": "s⁻¹", "kon": "M⁻¹ s⁻¹"}}
{"binder": "B5", "Kd": 190, "koff": 0.133, "kon": 702000}
{"molecular_target": "T1, human C5", "assay": "BLI (Gator), percentage dissociation from human C5 at pH 5.8 over pH 7.4", "method": "as §1"}
{"binder": "B1", "Ratio between dissociation at pH 5.8 and 7.4": 11.3}
{"binder": "B2", "Ratio between dissociation at pH 5.8 and 7.4": -2.09}
{"binder": "B3", "Ratio between dissociation at pH 5.8 and 7.4": 6.54}
{"binder": "B4", "Ratio between dissociation at pH 5.8 and 7.4": 10.9}
{"molecular_target": "T1, human C5", "assay": "BLI (Gator), antibody on anti-human IgG Fc probes, 40 nM human C5 bound 600 s at pH 7.4, 600 s dissociation at pH 5.8", "method": "as §1", "units": {"Dissociation pH 5.8 (%)": "%"}}
{"binder": "B1", "Dissociation pH 5.8 (%)": 60.8}
{"binder": "B2", "Dissociation pH 5.8 (%)": -2.42}
{"binder": "B3", "Dissociation pH 5.8 (%)": 54.2}
{"binder": "B4", "Dissociation pH 5.8 (%)": 49}
{"molecular_target": "T3, human C5a", "assay": "ligand blocking, flow cytometry: antibody titrated against 20 nM biotinylated human C5a binding to U937/C5aR cells, Experiment #1", "method": "as §2, §3", "units": {"IC50": "nM"}}
{"binder": "B1", "IC50": 2.57}
{"binder": "B2", "IC50": 2.03}
{"binder": "B3", "IC50": 3.68}
{"binder": "B4", "IC50": 4.71}
{"molecular_target": "T3, human C5a", "assay": "cell-based or functional assay", "remark": "another data set of the same source", "units": {"Inhibition of cell migration IC50 (nM), U937-C5aR cells": "nM"}}
{"binder": "B1", "Inhibition of cell migration IC50 (nM), U937-C5aR cells": 0.076}
{"binder": "B2", "Inhibition of cell migration IC50 (nM), U937-C5aR cells": 0.061}
{"binder": "B3", "Inhibition of cell migration IC50 (nM), U937-C5aR cells": 0.099}
{"binder": "B4", "Inhibition of cell migration IC50 (nM), U937-C5aR cells": 0.07}
{"molecular_target": "T1, human C5", "assay": "ELISA, antibody titrated on C5-coated plate", "from_the_text": "The anti-C5a constructs were further tested for their affinities to human C5 using ELISA. Off-target C5 binding reduces availability of anti-C5a antibodies (C5-mediated “sink effect”). […] Each data point was the mean of 2 replicates.", "units": {"affinity determined by ELISA, huC5": "nM"}}
{"binder": "B1", "affinity determined by ELISA, huC5": 0.0601}
{"binder": "B2", "affinity determined by ELISA, huC5": 0.0288}
{"binder": "B3", "affinity determined by ELISA, huC5": 0.12}
{"binder": "B4", "affinity determined by ELISA, huC5": 0.0682}
